Measured values from PMC8336515, “OTUD7B Deubiquitinates LSD1 to Govern Its Binding Partner Specificity, Homeostasis, and Breast Cancer Metastasis” (Advanced Science, 2021).

Molecular target: recombinant LSD1 (UniProt O60341 1-852)
Assay: pull-down; recombinant proteins in vitro (Figure S1F); GST fusion on glutathione-sepharose beads, NETN buffer, 4 °C for 2 h
Details: both partners purified

binding result: binds
B1: recombinant OTUD7B (enzyme)
chain: MTLDMDAVLSDFVRSTGAEPGLARDLLEGKNWDVNAALSDFEQLRQVHAGNLPPSFSEGSGGSRTPEKGFSDREPTRPPRPILQRQDDIVQEKRLSRGISHASSSIVSLARSHVSSNGGGGGSNEHPLEMPICAFQLPDLTVYNEDFRSFIERDLIEQSMLVALEQAGRLNWWVSVDPTSQRLLPLATTGDGNCLLHAASLGMWGFHDRDLMLRKALYALMEKGVEKEALKRRWRWQQTQQNKESGLVYTEDEWQKEWNELIKLASSEPRMHLGTNGANCGGVESSEEPVYESLEEFHVFVLAHVLRRPIVVVADTMLRDSGGEAFAPIPFGGIYLPLEVPASQCHRSPLVLAYDQAHFSALVSMEQKENTKEQAVIPLTDSEYKLLPLHFAVDPGKGWEWGKDDSDNVRLASVILSLEVKLHLLHSYMNVKWIPLSSDAQAPLAQPESPTASAGDEPRSTPESGDSDKESVGSSSTSNEGGRRKEKSKRDREKDKKRADSVANKLGSFGKTLGSKLKKNMGGLMHSKGSKPGGVGTGLGGSSGTETLEKKKKNSLKSWKGGKEEAAGDGPVSEKPPAESVGNGGSKYSQEVMQSLSILRTAMQGEGKFIFVGTLKMGHRHQYQEEMIQRYLSDAEERFLAEQKQKEAERKIMNGGIGGGPPPAKKPEPDAREEQPTGPPAESRAMAFSTGYPGDFTIPRPSGGGVHCQEPRRQLAGGPCVGGLPPYATFPRQCPPGRPYPHQDSIPSLEPGSHSKDGLHRGALLPPPYRVADSYSNGYREPPEPDGWAGGLRGLPPTQTKCKQPNCSFYGHPETNNFCSCCYREELRRREREPDGELLVHRF
notes: OTUD7B; cDNA in pGEX4T1 (GST) or pET21b (His); also called GST-OTUD7B; His-OTUD7B; source: recombinant; GST fusions expressed in BL21 and purified by glutathione-sepharose beads; not shown: GST or His (GST-OTUD7B and His-OTUD7B were both cloned)
